# Assay results taken from patent publication US20150344570A1 (published 2015).
# B1: GpH7-A5/GpH7-B3 variant K334_16H/GpL16-k0 (antibody, human IgG1, kappa)
# heavy 1: not shown
# heavy 2: not shown
# light: DIVMTQSPLSLPVTPGEPASISCQASESLVHSNRNTYLHWYLQKPGQSPQLLIYKVSNRFSGVPDRFSGSGSGTDFTLKISRVEAEDVGVYYCSQNTHVPPTFGQGTKVEIERTVAAPSVFIFPPSDEQLKSGTASVVCLLNNFYPREAKVQWKVDNALQSGNSQESVTEQDSKDSTYSLSSTLTLSKADYEKHKVYACEVTHQGLSSPVTKSFNRGEC
# notes: heterodimerized; also called He Ab
# B2: GpH7-A5/GpH7-B3 variant K334_18N/GpL16-k0 (antibody, human IgG1, kappa)
# heavy 1: not shown
# heavy 2: not shown
# light: B1 light
# notes: as for B1
# B3: GpH7-A5/GpH7-B3 variant L328_03V/GpL16-k0 (antibody, human IgG1, kappa)
# heavy 1: not shown
# heavy 2: not shown
# light: B1 light
# notes: as for B1
# B4: GpH7-A5/GpH7-B3 variant L328_04F/GpL16-k0 (antibody, human IgG1, kappa)
# heavy 1: not shown
# heavy 2: not shown
# light: B1 light
# notes: as for B1
# B5: GpH7-A5/GpH7-B3 variant L328_06M/GpL16-k0 (antibody, human IgG1, kappa)
# heavy 1: not shown
# heavy 2: not shown
# light: B1 light
# notes: as for B1
# B6: GpH7-A5/GpH7-B3 variant L328_07I/GpL16-k0 (antibody, human IgG1, kappa)
# heavy 1: not shown
# heavy 2: not shown
# light: B1 light
# notes: as for B1
# B7: GpH7-A5/GpH7-B3 variant L328_15Y/GpL16-k0 (antibody, human IgG1, kappa)
# heavy 1: not shown
# heavy 2: not shown
# light: B1 light
# notes: as for B1
# B8: GpH7-A5/GpH7-B3 variant P238_08L/GpL16-k0 (antibody, human IgG1, kappa)
# heavy 1: not shown
# heavy 2: not shown
# light: B1 light
# notes: as for B1
# B9: GpH7-A5/GpH7-B3 variant P271_01G/GpL16-k0 (antibody, human IgG1, kappa)
# heavy 1: not shown
# heavy 2: not shown
# light: B1 light
# notes: as for B1
# B10: GpH7-A5/GpH7-B3 variant S239_01G/GpL16-k0 (antibody, human IgG1, kappa)
# heavy 1: not shown
# heavy 2: not shown
# light: B1 light
# notes: as for B1
# B11: GpH7-A5/GpH7-B3 variant S239_09D/GpL16-k0 (antibody, human IgG1, kappa)
# heavy 1: not shown
# heavy 2: not shown
# light: B1 light
# notes: as for B1
# B12: GpH7-A5/GpH7-B3 variant S267_01G/GpL16-k0 (antibody, human IgG1, kappa)
# heavy 1: not shown
# heavy 2: not shown
# light: B1 light
# notes: as for B1
# B13: GpH7-A5/GpH7-B3 variant S267_02A/GpL16-k0 (antibody, human IgG1, kappa)
# heavy 1: not shown
# heavy 2: not shown
# light: B1 light
# notes: as for B1
# B14: GpH7-A5/GpH7-B3 variant S267_07I/GpL16-k0 (antibody, human IgG1, kappa)
# heavy 1: not shown
# heavy 2: not shown
# light: B1 light
# notes: as for B1
# B15: GpH7-A5/GpH7-B3 variant S337_14T/GpL16-k0 (antibody, human IgG1, kappa)
# heavy 1: not shown
# heavy 2: not shown
# light: B1 light
# notes: as for B1
# B16: GpH7-A5/GpH7-B3 variant T335_04F/GpL16-k0 (antibody, human IgG1, kappa)
# heavy 1: not shown
# heavy 2: not shown
# light: B1 light
# notes: as for B1
# B17: GpH7-A5/GpH7-B3 variant T335_06M/GpL16-k0 (antibody, human IgG1, kappa)
# heavy 1: not shown
# heavy 2: not shown
# light: B1 light
# notes: as for B1
# B18: GpH7-A5/GpH7-B3 variant T335_08L/GpL16-k0 (antibody, human IgG1, kappa)
# heavy 1: not shown
# heavy 2: not shown
# light: B1 light
# notes: as for B1
# B19: GpH7-A5/GpH7-B3 variant T335_09D/GpL16-k0 (antibody, human IgG1, kappa)
# heavy 1: not shown
# heavy 2: not shown
# light: B1 light
# notes: as for B1
# B20: GpH7-A5/GpH7-B3 variant T335_16H/GpL16-k0 (antibody, human IgG1, kappa)
# heavy 1: not shown
# heavy 2: not shown
# light: B1 light
# notes: as for B1
# B21: GpH7-A5/GpH7-B3 variant T335_18N/GpL16-k0 (antibody, human IgG1, kappa)
# heavy 1: not shown
# heavy 2: not shown
# light: B1 light
# notes: as for B1
# B22: GpH7-A5/GpH7-B3 variant T335_19Q/GpL16-k0 (antibody, human IgG1, kappa)
# heavy 1: not shown
# heavy 2: not shown
# light: B1 light
# notes: as for B1
# B23: GpH7-A5/GpH7-B3 variant T335_20W/GpL16-k0 (antibody, human IgG1, kappa)
# heavy 1: not shown
# heavy 2: not shown
# light: B1 light
# notes: as for B1
# B24: GpH7-A5/GpH7-B3 variant V266_06M/GpL16-k0 (antibody, human IgG1, kappa)
# heavy 1: not shown
# heavy 2: not shown
# light: B1 light
# notes: as for B1
# B25: GpH7-A5/GpH7-B3 variant Y296_20W/GpL16-k0 (antibody, human IgG1, kappa)
# heavy 1: not shown
# heavy 2: not shown
# light: B1 light
# notes: as for B1
# B26: GpH7-A5/GpH7-B3 variant Y300_04F/GpL16-k0 (antibody, human IgG1, kappa)
# heavy 1: not shown
# heavy 2: not shown
# light: B1 light
# notes: as for B1
# B27: GpH7-A5/GpH7-B3 variant P329_01G/GpL16-k0 (antibody, human IgG1, kappa)
# heavy 1: not shown
# heavy 2: not shown
# light: B1 light
# notes: Heterodimerized anti-glypican-3 IgG1 antibody; alteration only in the GpH7-B3 H chain; position in EU numbering; also called He Ab
# B28: GpH7-A5/GpH7-B3 variant A330_03V/GpL16-k0 (antibody, human IgG1, kappa)
# heavy 1: not shown
# heavy 2: not shown
# light: B1 light
# notes: as for B27
# B29: GpH7-A5/GpH7-B3 variant A330_07I/GpL16-k0 (antibody, human IgG1, kappa)
# heavy 1: not shown
# heavy 2: not shown
# light: B1 light
# notes: as for B27
# B30: GpH7-A5/GpH7-B3 variant A330_08L/GpL16-k0 (antibody, human IgG1, kappa)
# heavy 1: not shown
# heavy 2: not shown
# light: B1 light
# notes: as for B27
# B31: GpH7-A5/GpH7-B3 variant A330_09D/GpL16-k0 (antibody, human IgG1, kappa)
# heavy 1: not shown
# heavy 2: not shown
# light: B1 light
# notes: as for B27
# B32: GpH7-A5/GpH7-B3 variant A330_10E/GpL16-k0 (antibody, human IgG1, kappa)
# heavy 1: not shown
# heavy 2: not shown
# light: B1 light
# notes: as for B27
# B33: GpH7-A5/GpH7-B3 variant A330_12R/GpL16-k0 (antibody, human IgG1, kappa)
# heavy 1: not shown
# heavy 2: not shown
# light: B1 light
# notes: as for B27
# B34: GpH7-A5/GpH7-B3 variant A330_13S/GpL16-k0 (antibody, human IgG1, kappa)
# heavy 1: not shown
# heavy 2: not shown
# light: B1 light
# notes: as for B27
# B35: GpH7-A5/GpH7-B3 variant A330_14T/GpL16-k0 (antibody, human IgG1, kappa)
# heavy 1: not shown
# heavy 2: not shown
# light: B1 light
# notes: as for B27
# B36: GpH7-A5/GpH7-B3 variant A330_18N/GpL16-k0 (antibody, human IgG1, kappa)
# heavy 1: not shown
# heavy 2: not shown
# light: B1 light
# notes: as for B27
# B37: GpH7-A5/GpH7-B3 variant I336_20W/GpL16-k0 (antibody, human IgG1, kappa)
# heavy 1: not shown
# heavy 2: not shown
# light: B1 light
# notes: as for B27
# B38: GpH7-A5/GpH7-B3 variant N325_02A/GpL16-k0 (antibody, human IgG1, kappa)
# heavy 1: not shown
# heavy 2: not shown
# light: B1 light
# notes: as for B27
# B39: GpH7-A5/GpH7-B3 variant N325_05P/GpL16-k0 (antibody, human IgG1, kappa)
# heavy 1: not shown
# heavy 2: not shown
# light: B1 light
# notes: as for B27
# B40: GpH7-A5/GpH7-B3 variant Y300_05P/GpL16-k0 (antibody, human IgG1, kappa)
# heavy 1: not shown
# heavy 2: not shown
# light: B1 light
# notes: as for B27
# Molecular target: T1, FcγRIIa R (extracellular domain, His tag at the C terminus) (human, UniProt P12318 34-217)
# T1 construct: extracellular domain; Soluble analyte in Biacore; also called FcgRIIa R type; 2aR
# T1 sequence (looked up): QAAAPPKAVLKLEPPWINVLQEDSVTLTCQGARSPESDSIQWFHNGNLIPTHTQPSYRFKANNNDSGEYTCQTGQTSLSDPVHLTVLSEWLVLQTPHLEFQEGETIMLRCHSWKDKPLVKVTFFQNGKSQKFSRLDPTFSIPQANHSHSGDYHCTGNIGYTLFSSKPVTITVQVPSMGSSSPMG
# Assay: SPR (Biacore), relative binding, control GpH7-A5/GpH7-B3/GpL16-k0 = 100
# Experimental: (§1) Analysis of interaction between objective antibody and the FcγR was carried out using Biacore T100 (GE Healthcare). HBS-EP+ (GE Healthcare) was used as the running buffer, and the measurement temperature was set to 25° C. Chips produced by immobilizing the antigen peptide by the amine coupling method to a Series S Sencor Chip CM5 (GE Healthcare), or alternatively, chips produced by allowing preliminarily biotinylated antigen peptides to interact with and immobilize onto a Series S Sensor Chip SA (certified) (GE Healthcare) were used. Antibodies of interest were captured onto an antigen peptide-immobilized chip, and allowed to interact to each FcγR diluted with running buffer. To regenerate and repeatedly use the chip, the antibodies captured on the chip were washed off by reacting 10 mM glycine-HCl, pH 1.5.
row,Binder,He/Con_2aR
1,B1,109 % of control
2,B2,112 % of control
3,B3,116 % of control
4,B4,138 % of control
5,B5,115 % of control
6,B6,124 % of control
7,B7,136 % of control
8,B8,140 % of control
9,B9,144 % of control
10,B10,128 % of control
11,B11,137 % of control
12,B12,113 % of control
13,B13,155 % of control
14,B14,111 % of control
15,B15,110 % of control
16,B16,108 % of control
17,B17,105 % of control
18,B18,108 % of control
19,B19,110 % of control
20,B20,108 % of control
21,B21,106 % of control
22,B22,106 % of control
23,B23,109 % of control
24,B24,150 % of control
25,B25,110 % of control
26,B26,108 % of control

# Molecular target: T2, FcγRIIb (human, UniProt P31994 43-217)
# T2 construct: extracellular domain; Soluble His-tagged extracellular domain expressed in FreeStyle293 cells; analyte in Biacore; also called FcgRIIb; 2b; not shown: His tag attached to the C terminus
# T2 sequence (looked up): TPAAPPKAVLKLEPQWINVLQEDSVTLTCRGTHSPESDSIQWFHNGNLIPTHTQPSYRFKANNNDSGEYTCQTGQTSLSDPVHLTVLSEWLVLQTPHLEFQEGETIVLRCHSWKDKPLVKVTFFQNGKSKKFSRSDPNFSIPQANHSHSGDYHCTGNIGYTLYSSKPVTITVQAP
# Assay: SPR (Biacore), antibody captured via antigen peptide, FcγR as analyte
# Experimental: (§2) The heterodimerized antibodies He Abs in which one of the H chains was introduced with an alteration were assayed for their binding activities to each activating FcγR and inhibitory FcγR according to the method described in Example 4. […] The activating FcγRs in FIGS. 26, 27, 28, and 29 are FcγRIa, FcγRIIa (R), FcγRIIa (H), and FcγRIIIa, respectively.
# as §1
row,Binder,He/Con_2b (IIb binding relative to GpH7-A5/GpH7-B3/GpL16-k0)
1,B27,41.7 % of control (control = 100)
2,B28,52.4 % of control (control = 100)
3,B29,67.1 % of control (control = 100)
4,B30,70.5 % of control (control = 100)
5,B31,55.6 % of control (control = 100)
6,B32,70.1 % of control (control = 100)
7,B33,84.8 % of control (control = 100)
8,B34,41.3 % of control (control = 100)
9,B35,77.9 % of control (control = 100)
10,B36,63.7 % of control (control = 100)
11,B37,20.3 % of control (control = 100)
12,B38,64.4 % of control (control = 100)
13,B39,26 % of control (control = 100)

# Molecular target: T3, FcγRIIa R (human, UniProt P12318 34-217)
# T3 construct: extracellular domain; Soluble His-tagged extracellular domain expressed in FreeStyle293 cells; analyte in Biacore; also called FcgRIIa R; FcgRIIaR; not shown: His tag attached to the C terminus
# T3 sequence (looked up): T1 sequence (looked up)
# Assay: as above
# Experimental: as §2, §1
row,Binder,He/Con_2aR (IIaR binding relative to GpH7-A5/GpH7-B3/GpL16-k0)
1,B27,55 % of control (control = 100)
2,B28,74.9 % of control (control = 100)
3,B29,85.6 % of control (control = 100)
4,B30,88.8 % of control (control = 100)
5,B31,70.9 % of control (control = 100)
6,B32,86.6 % of control (control = 100)
7,B33,104 % of control (control = 100)
8,B34,60.8 % of control (control = 100)
9,B35,95.5 % of control (control = 100)
10,B36,81.1 % of control (control = 100)
11,B37,30.3 % of control (control = 100)
12,B38,84.1 % of control (control = 100)
13,B39,42.2 % of control (control = 100)
14,B40,10.8 % of control (control = 100)

# Molecular target: T3, FcγRIIa R
# Assay: ratio of He/Con_2aR to He/Con_2b (binding to FcγRIIb as reference); SPR
row,Binder,He_2aR/2b (IIaR/IIb)
1,B27,1.32
2,B28,1.43
3,B29,1.27
4,B30,1.26
5,B31,1.27
6,B32,1.23
7,B33,1.22
8,B34,1.47
9,B35,1.23
10,B36,1.27
11,B37,1.5
12,B38,1.31
13,B39,1.63
14,B40,1.47
